The source of these data is US11015206B2, “Compositions and methods comprising sequences having hydroxyphenylpyruvate dioxygenase (HPPD) activity” (PIONEER HI-BRED INTERNATIONAL, INC., priority 2014, dated 2021).

Positions count from the first letter of the chain named.

B1: P056028-B-08 (protein)
chain: MGPTPTATAAGAAVAAASAAEQAAFRLVGHRNFVRFNPRSDRFQTLAFHHVELWCADAASAAGRFSFALGVPLAARSDLSTGNSAHASLLLRSGSLSLLFTAPYAHGADAATAALPSFSAAAARRFAADHGLAVRAVALRVADAEDAFRASVAAGARPAFGPVDLGRGFRLAEVELYGDVVLRYVSYPDGAAGEPFLPGFEGVASPGAADYGLSRFDHIVGNVPELAPAAAYMAGFTGFHEFAEFTTEDVGTTESGLNSMALANNSENVLLPLNEPVHGTKRRSQIQTFLDHHGGPGVQHIALASDDVLRTLREMRARSAMGGFEFLPPPLSDYYDGVRKCAGDVLTEAQINECQELGVMVDRDDEGVLLQIFTKPVGDRPTFFLEIIQRIGCMEKDEKGQEYQKGGCGGFGKGNFGQLFKSIEDYEKSLEAKQAAAAATAQGS
modifications: Zea mays variant form created by artificial means.
B2: P056028-D-11 (protein)
chain: B1 chain with A142T, A191G
modifications: Zea mays variant form created by artificial means.
B3: P056028-C-04 (protein)
chain: B1 chain with G107D, A191G, P206S, H278L, K340R, G417S, Q434R
modifications: Zea mays variant form created by artificial means.
B4: P056028-C-03 (protein)
chain: B1 chain with F67Y, L385I, I387L
modifications: Zea mays variant form created by artificial means.
B5: P056028-D-02 (protein)
chain: B1 chain with A191G
modifications: Zea mays variant form created by artificial means.
B6: P056028-C-10 (protein)
chain: B1 chain with P188S
modifications: Zea mays variant form created by artificial means.
B7: P056028-C-06 (protein)
chain: B1 chain with A191G, P206S, S214N, E356R, L385V
modifications: Zea mays variant form created by artificial means.
B8: P056028-C-09 (protein)
chain: B1 chain with S214N, K340R
modifications: Zea mays variant form created by artificial means.
B9: P056028-D-01 (protein)
chain: B1 chain with A122T, P206Q, K340R, E356K
modifications: Zea mays variant form created by artificial means.
B10: P056028-C-02 (protein)
chain: B1 chain with Y211L, K340R, E356K
modifications: Zea mays variant form created by artificial means.
B11: P056028-C-08 (protein)
chain: B1 chain with L182M, E431D
modifications: Zea mays variant form created by artificial means.
B12: P056028-D-10 (protein)
chain: B1 chain with P206Q, N265D, K340R
modifications: Zea mays variant form created by artificial means.
B13: P056028-C-11 (protein)
chain: B1 chain with Y211L, I387L
modifications: Zea mays variant form created by artificial means.
B14: P056028-D-04 (protein)
chain: B1 chain with L182M, Y211L, S214N, K340R, G417S
modifications: Zea mays variant form created by artificial means.

The first data set deals with 4-hydroxyphenylpyruvate dioxygenase (HPPD). The experiment in a line: OFF rate ratio: release of inhibitor from pre-formed enzyme-inhibitor complex. It counts as biochemical, Z. mays. The conditions noted are these: Table 7; tembotrione; combinatorial variants. An outline of the steps: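 HPPD (7.2 μM) pre-incubated 1 h at RT with inhibitor (8 μM), then diluted into 25 mM Hepes pH 7, 2 mM ascorbate, 10 μM FeSO4, 100 μM HPP, 50 nM HGD; A320 followed 12 min. Ratio = steady-state rate with inhibitor over initial rate of inhibitor-free enzyme.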
On to B1, for which the OFF rate ratio came to 0.325.

For the molecule B2, the OFF rate ratio is 0.261.

In the case of B3, the OFF rate ratio was determined as 0.322.

Turning to B4, the OFF rate ratio is recorded as 0.356.

Regarding B5, the OFF rate ratio is listed as 0.299.

Consider B6, for which the OFF rate ratio is listed as 0.356.

Regarding B7, the OFF rate ratio turned out to be 0.351.

With B8, the OFF rate ratio was found to be 0.314.

B9: the OFF rate ratio is listed as 0.348.

B10: the OFF rate ratio was 0.379.

Turning to B11, the OFF rate ratio is recorded as 0.381.

Regarding B12, the OFF rate ratio amounted to 0.253.

For the molecule B13, the OFF rate ratio worked out at 0.293.

On to B14, for which the OFF rate ratio stood at 0.197.

The test system is the same in a further data set. The experiment in a line: Estimate of kcat from initial rate at saturating hydroxyphenylpyruvate without inhibitor (ON rate ratio assay). It counts as biochemical, Z. mays. The conditions noted are these: Megatable 3; shuffled variants. An outline of the steps:
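Reactions used 60 or 120 nM HPPD and saturating 100 μM hydroxyphenylpyruvate without inhibitor. kcat was estimated from the initial rate at the known enzyme concentration.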
A word on the kcat: it is the maximal rate divided by the concentration of active sites. In the case of B1, the kcat was 0.258 s⁻¹.

For B2, the kcat is 0.285 s⁻¹.

As to B3, the kcat is 0.378 s⁻¹.

Consider B4, for which the kcat is 0.228 s⁻¹.

For B5, the turnover number (kcat) was 0.405 s⁻¹.

For the molecule B6, the kcat is 0.243 s⁻¹.

In the case of B7, the kcat is 0.177 s⁻¹.

In the case of B8, the kcat is 0.283 s⁻¹.

In the case of B9, the turnover number (kcat) is 0.355 s⁻¹.

For B10, the kcat is 0.313 s⁻¹.

For B11, the kcat was 0.225 s⁻¹.

In the case of B12, the catalytic constant (kcat) is 0.302 s⁻¹.

As for B13, the kcat was 0.205 s⁻¹.

In the case of B14, the kcat was 0.207 s⁻¹.

The same data set, now with this note: Table 7; combinatorial variants.
Consider B1, for which the kcat was 0.258 s⁻¹.

For the molecule B2, the kcat is 0.285 s⁻¹.

Turning to B3, the kcat is 0.378 s⁻¹.

In the case of B4, the kcat was 0.228 s⁻¹.

On to B5, for which the catalytic constant (kcat) is 0.405 s⁻¹.

With B6, the kcat was 0.243 s⁻¹.

As for B7, the kcat is 0.177 s⁻¹.

Turning to B8, the turnover number (kcat) is 0.283 s⁻¹.

Take B9: the kcat was 0.355 s⁻¹.

For the molecule B10, the kcat is 0.313 s⁻¹.

Turning to B11, the catalytic constant (kcat) was 0.225 s⁻¹.

Regarding B12, the kcat was 0.302 s⁻¹.

As for B13, the kcat is 0.205 s⁻¹.

In the case of B14, the turnover number (kcat) was 0.207 s⁻¹.

A further data set has the same test system. The experiment in a line: Insensitivity parameter (ON × OFF) and trait fitness (ON × OFF × kcat/KM or × kcat). It counts as biochemical, Z. mays. On the set-up: key to ON × OFF / Insensitivity, mesotrione, ON × OFF / Insensitivity, tembotrione, ON × OFF / Insensitivity, topramezone, ON × OFF / Insensitivity, sulcotrione, ON × OFF / Insensitivity, isoxaflutole (DKN), ON × OFF: insensitivity = ON rate ratio × OFF rate ratio (surrogate for KD). The conditions noted are these: Megatable 3; shuffled variants. In a few lines:
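Calculated, not measured directly: ON rate ratio × OFF rate ratio gives an insensitivity parameter serving as a KD surrogate.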
As for B1, the “ON × OFF” value is 0.221 and the “ON × OFF × kcat” value turned out to be 3.44.

Take B2: the “ON × OFF” value came out at 0.188 and the “ON × OFF × kcat” value is on record as 3.21.

Consider B3, for which the “ON × OFF” value was 0.234 and the “ON × OFF × kcat” value came out at 5.32.

As to B4, the “ON × OFF” value came out at 0.263 and the “ON × OFF × kcat” value was determined as 3.62.

For B5, the “ON × OFF” value is recorded as 0.218 and the “ON × OFF × kcat” value is 5.31.

Consider B6, for which the “ON × OFF” value is reported as 0.249 and the “ON × OFF × kcat” value is 3.63.

For the molecule B7, the “ON × OFF” value is 0.261 and the “ON × OFF × kcat” value was 2.77.

For the molecule B8, the “ON × OFF” value was 0.222 and the “ON × OFF × kcat” value was 3.76.

In the case of B9, the “ON × OFF” value worked out at 0.254 and the “ON × OFF × kcat” value amounted to 5.39.

For B10, the “ON × OFF” value was 0.272 and the “ON × OFF × kcat” value was 5.11.

B11: the “ON × OFF” value is listed as 0.271 and the “ON × OFF × kcat” value was determined as 3.65.

As for B12, the “ON × OFF” value stood at 0.170 and the “ON × OFF × kcat” value was determined as 3.07.

Turning to B13, the “ON × OFF” value stood at 0.214 and the “ON × OFF × kcat” value was found to be 2.64.

As to B14, the “ON × OFF” value was 0.137 and the “ON × OFF × kcat” value is recorded as 1.71.

The data set is the same for the next values; noted with them: Table 7; tembotrione; combinatorial variants.
For the molecule B1, the “ON × OFF” value came out at 0.221 and the “ON × OFF × kcat” value was 3.44.

As to B2, the “ON × OFF” value worked out at 0.188 and the “ON × OFF × kcat” value is listed as 3.21.

For the molecule B3, the “ON × OFF” value is reported as 0.234 and the “ON × OFF × kcat” value is given as 5.32.

For B4, the “ON × OFF” value is 0.263 and the “ON × OFF × kcat” value came to 3.62.

With B5, the “ON × OFF” value is on record as 0.218 and the “ON × OFF × kcat” value is recorded as 5.31.

For the molecule B6, the “ON × OFF” value amounted to 0.249 and the “ON × OFF × kcat” value amounted to 3.63.

As to B7, the “ON × OFF” value is given as 0.261 and the “ON × OFF × kcat” value was 2.77.

Consider B8, for which the “ON × OFF” value was 0.222 and the “ON × OFF × kcat” value was 3.76.

Consider B9, for which the “ON × OFF” value is on record as 0.254 and the “ON × OFF × kcat” value is recorded as 5.39.

Consider B10, for which the “ON × OFF” value amounted to 0.272 and the “ON × OFF × kcat” value is 5.11.

Consider B11, for which the “ON × OFF” value turned out to be 0.271 and the “ON × OFF × kcat” value turned out to be 3.65.

For B12, the “ON × OFF” value is given as 0.170 and the “ON × OFF × kcat” value was found to be 3.07.

In the case of B13, the “ON × OFF” value is given as 0.214 and the “ON × OFF × kcat” value came out at 2.64.

As for B14, the “ON × OFF” value amounted to 0.137 and the “ON × OFF × kcat” value was 1.71.

The test system is the same in another data set. The experiment in a line: ON rate ratio: HPPD reaction rate with vs without inhibitor in the 70 to 90 second interval. It counts as biochemical, Z. mays. As to conditions: Table 7; tembotrione; combinatorial variants. An outline of the steps: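 Time courses of HPPD reactions, 60 or 120 nM enzyme with 100 μM HPP substrate, run with and without 4 μM inhibitor (e.g. mesotrione, tembotrione). Value is the rate with inhibitor over rate without, taken over 70–90 s; higher ratio reflects slower kON.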
With B1, the ON rate ratio worked out at 0.681.

For the molecule B2, the ON rate ratio turned out to be 0.719.

Turning to B3, the ON rate ratio turned out to be 0.727.

Take B4: the ON rate ratio is on record as 0.739.

As for B5, the ON rate ratio is 0.730.

For the molecule B6, the ON rate ratio came to 0.699.

With B7, the ON rate ratio stood at 0.742.

In the case of B8, the ON rate ratio is listed as 0.706.

B9: the ON rate ratio was 0.728.

Take B10: the ON rate ratio was determined as 0.717.

On to B11, for which the ON rate ratio was determined as 0.712.

As for B12, the ON rate ratio was determined as 0.670.

B13: the ON rate ratio turned out to be 0.731.

B14: the ON rate ratio stood at 0.696.
